Results from article PMC6685660.

Experiments:
Experiment in all cases: EMSA
AaTGA6 = biological target: T1, AaTGA6 (Artemisia annua, UniProt A0A481P8G0 1-436)
T1 sequence: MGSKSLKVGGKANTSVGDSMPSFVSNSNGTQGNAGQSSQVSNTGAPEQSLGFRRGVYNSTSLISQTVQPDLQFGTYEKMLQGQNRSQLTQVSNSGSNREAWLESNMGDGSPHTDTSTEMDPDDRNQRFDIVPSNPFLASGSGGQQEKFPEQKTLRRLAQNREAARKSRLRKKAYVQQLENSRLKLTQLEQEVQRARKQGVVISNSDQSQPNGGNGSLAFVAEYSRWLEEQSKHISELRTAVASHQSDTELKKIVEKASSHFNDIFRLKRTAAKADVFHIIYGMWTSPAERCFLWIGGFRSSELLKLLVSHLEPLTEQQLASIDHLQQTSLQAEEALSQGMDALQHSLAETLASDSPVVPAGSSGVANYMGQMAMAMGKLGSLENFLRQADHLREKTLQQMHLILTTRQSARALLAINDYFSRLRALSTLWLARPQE

AaNPR1 = biological target: T2, AaNPR1 (Artemisia annua, UniProt A0A481P8F5 1-569)
T2 sequence: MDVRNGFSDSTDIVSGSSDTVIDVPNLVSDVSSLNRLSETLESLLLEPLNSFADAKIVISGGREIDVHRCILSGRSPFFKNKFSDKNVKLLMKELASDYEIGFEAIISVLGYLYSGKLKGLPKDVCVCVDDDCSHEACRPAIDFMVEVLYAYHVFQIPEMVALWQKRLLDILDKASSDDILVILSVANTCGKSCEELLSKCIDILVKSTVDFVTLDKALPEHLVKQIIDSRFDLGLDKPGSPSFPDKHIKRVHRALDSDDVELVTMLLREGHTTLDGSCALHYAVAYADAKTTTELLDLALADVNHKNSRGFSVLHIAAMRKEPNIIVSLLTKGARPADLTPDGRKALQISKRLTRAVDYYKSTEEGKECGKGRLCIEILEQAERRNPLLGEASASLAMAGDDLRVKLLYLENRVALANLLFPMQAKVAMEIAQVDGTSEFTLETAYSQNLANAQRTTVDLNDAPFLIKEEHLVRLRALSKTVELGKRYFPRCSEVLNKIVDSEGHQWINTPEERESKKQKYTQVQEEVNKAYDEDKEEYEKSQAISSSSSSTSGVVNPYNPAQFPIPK

AaTGA6;AaNPR1 = biological target: T3, AaTGA6;AaNPR1 (Artemisia annua;Artemisia annua, UniProt A0A481P8G0;A0A481P8F5 1-436;1-569, |)
T3 sequence 1: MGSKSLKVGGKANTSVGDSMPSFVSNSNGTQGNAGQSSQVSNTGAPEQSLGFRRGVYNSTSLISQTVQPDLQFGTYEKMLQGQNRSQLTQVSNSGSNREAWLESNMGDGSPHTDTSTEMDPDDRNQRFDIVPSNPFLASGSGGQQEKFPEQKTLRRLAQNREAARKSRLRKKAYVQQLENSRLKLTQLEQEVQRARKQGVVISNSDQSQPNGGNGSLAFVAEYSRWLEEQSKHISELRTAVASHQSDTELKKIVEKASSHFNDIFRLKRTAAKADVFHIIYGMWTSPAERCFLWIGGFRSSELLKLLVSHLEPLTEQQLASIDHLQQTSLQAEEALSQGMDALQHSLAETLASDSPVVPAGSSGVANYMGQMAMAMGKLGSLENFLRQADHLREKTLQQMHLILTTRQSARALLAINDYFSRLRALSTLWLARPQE
T3 sequence 2: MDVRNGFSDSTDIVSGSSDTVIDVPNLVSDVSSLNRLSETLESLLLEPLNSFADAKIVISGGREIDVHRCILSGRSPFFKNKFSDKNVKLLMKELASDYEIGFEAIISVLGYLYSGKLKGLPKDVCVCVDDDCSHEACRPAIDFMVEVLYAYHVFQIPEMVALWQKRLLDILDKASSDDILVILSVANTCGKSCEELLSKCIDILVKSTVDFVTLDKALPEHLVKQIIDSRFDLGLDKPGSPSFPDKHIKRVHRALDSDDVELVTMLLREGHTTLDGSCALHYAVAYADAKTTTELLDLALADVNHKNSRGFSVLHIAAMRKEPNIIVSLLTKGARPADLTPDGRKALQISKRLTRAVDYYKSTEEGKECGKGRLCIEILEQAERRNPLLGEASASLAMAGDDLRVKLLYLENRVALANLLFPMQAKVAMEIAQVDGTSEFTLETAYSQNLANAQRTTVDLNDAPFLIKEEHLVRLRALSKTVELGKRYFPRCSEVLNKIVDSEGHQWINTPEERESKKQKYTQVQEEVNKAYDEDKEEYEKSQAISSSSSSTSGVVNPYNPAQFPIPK

B1: AaERF1 promoter TGACG box probe (40 bp) (dsDNA)
DNA 1: AATGATGCGTCAAGCCATGACGTCACCCCTAATCCTAAAT
DNA 2: ATTTAGGATTAGGGGTGACGTCATGGCTTGACGCATCATT
binding result (AaTGA6): binds | binding result (AaNPR1): no binding | binding result (AaTGA6;AaNPR1): binds
